The target in test [1] is ErbB-3 receptor-Ig fusion (human) (UniProt P21860). Description: phage ELISA, ratio to wild-type HRG8 phage. A general note: ELISA stands for enzyme-linked immunosorbent assay.
Test [2] has the same target. Description: displacement of 125I-HRG-β1 177-244 from ErbB-3-Ig. Background: Displacement assays read how much labelled ligand stays bound in the presence of the test substance.
The target in test [3] is ErbB-4 receptor-Ig fusion (human) (UniProt Q15303). The experiment in a line: displacement of 125I-HRG-β1 177-244 from ErbB-4-Ig.

EC50(wt)/EC50(mut) and EC50 data for 31 molecules are collected here from patent publication US6136558A, “Heregulin variants” (Genentech, Inc., priority 1998, dated 2000).

Broadly, the EC50 is the concentration that produces a half-maximal response. Read a high EC50 as lower potency in that assay.

For SHLVKCAEKEKTFCVNGGECYRVKTYGYLMCKCPNEFTGDRCQNYVMAS (ligand) [HRG57 (phage)], in test [1], the EC50(wt)/EC50(mut) was 24. Still for that read-out and setting: as for SHLVKCAEKEKTFCVNGGECYRVKTYGYLMCKCPNEFTGDRCQHYVIAS (ligand) [HRG71 (phage)], the figure is 79.

B1: recombinantly produced HRG-β1 177-244 (ligand)
chain: SHLVKCAEKEKTFCVNGGECFMVKDLSNPSRYLCKCPNEFTGDRCQNYVMASFYKHLGIEFMEAEELY
Turning to B1, the EC50 in test [2] worked out at 9 nM; in test [3], 14.8 nM.

B2: A1 (phage) (ligand)
chain: WRLVPCAEKEKTFCVNGGECFMVKDLSNPSRYLCKCPNEFTGDRCQNYVMAS
B2: the EC50(wt)/EC50(mut) in test [1] was 0.55.

B3: H5 (phage) (ligand)
chain: SHLVKCAEKEKTFCVNGGECFMVKDLSNPSRYLCKCPNEFTGERCQNYVMAS
On to B3, for which the EC50(wt)/EC50(mut) in test [1] stood at 1.5.

B4: I1 (phage) (ligand)
chain: SHLVKCAEKEKTFCVNGGECFMVKDLSNPSRYLCKCPNEFTGDRCQWYVIAS
For B4, in test [1], the EC50(wt)/EC50(mut) worked out at 13.

B5: D10 (phage) (ligand)
chain: SHLVKCAEKEKTFCVNGGECYMVKTLSNPSRYLCKCPNEFTGDRCQNYVMAS
For the molecule B5, the EC50(wt)/EC50(mut) in test [1] stood at 2.1.

B6: A4 (phage) (ligand)
chain: WSLVKCAEKEKTFCVNGGECFMVKDLSNPSRYLCKCPNEFTGDRCQNYVMAS
With B6, the EC50(wt)/EC50(mut) in test [1] is less than 0.3.

B7: A2 (phage) (ligand)
chain: WSLQPCAEKEKTFCVNGGECFMVKDLSNPSRYLCKCPNEFTGDRCQNYVMAS
Consider B7, for which, in test [1], the EC50(wt)/EC50(mut) turned out to be 0.87. Still for that read-out and setting: the value for SHLVKCGEEREGFCVNGGECFMVKDYGYLMCKCPNEFTGDRCQNYVMAS (ligand) [HRG54 (phage)] was 12; that for SHLVKCGEEREGFCVNGGECYRVKTYGYLMCKCPNEFTGDRCQNYVMAS (ligand) [HRG55 (phage)] was 13. In the case of SHLVKCGEEREGFCVNGGECYRVKTYGYLMCKCPNEFTGDRCQNYVIAS (ligand) [HRG62 (phage)], the EC50(wt)/EC50(mut) in test [1] turned out to be 32. The same measure, in the same setting: as for SHLVKCGEEREGFCVNGGECFMVKDYGYLMCKCPNEFTGDRCQNYVIAS (ligand) [HRG61 (phage)], the figure is 29; as for SHLVKCAEKEKTFCVNGGECFMVKDPSRYLCKCPNEFTGDRCQNYVMAS (ligand) [HRG63 (phage)], 1.1; as for SHLVKCAEKEKTFCVNGGECFMVKDYGYLMCKCPNEFTGDRCQNYVIAS (ligand) [HRG48 (phage)], 49. On the same count and under the same terms, the value for SHLVKCAEKEKTFCVNGGECFMVKDYRYRMCKCPNEFTGDRCQNYVIAS (ligand) [E3 (phage)] was 16.

B8: Trx-HRG-β1 146-244 S177A fusion (ligand)
chain: DDDDKAYVSSESPIRISVSTEGANTSSSTSTSTTGTAHLVKCAEKEKTFCVNGGECFMVKDLSNPSRYLCKCPNEFTGDRCQNYVMASFYKHLGIEFMEAEELY
With B8, the EC50 in test [2] turned out to be 129 nM; in test [3], 54.6 nM.

B9: Trx-HRG-β1 146-244 H178A fusion (ligand)
chain: DDDDKAYVSSESPIRISVSTEGANTSSSTSTSTTGTSALVKCAEKEKTFCVNGGECFMVKDLSNPSRYLCKCPNEFTGDRCQNYVMASFYKHLGIEFMEAEELY
With B9, the EC50 in test [2] amounted to 476 nM; in test [3], 138 nM.

B10: Trx-HRG-β1 146-244 N192A fusion (ligand)
chain: DDDDKAYVSSESPIRISVSTEGANTSSSTSTSTTGTSHLVKCAEKEKTFCVAGGECFMVKDLSNPSRYLCKCPNEFTGDRCQNYVMASFYKHLGIEFMEAEELY
With B10, the concentration for a half-maximal effect (EC50) in test [2] is 1640 nM; in test [3] it was 696 nM.

B11: Trx-HRG-β1 146-244 L179A fusion (ligand)
chain: DDDDKAYVSSESPIRISVSTEGANTSSSTSTSTTGTSHAVKCAEKEKTFCVNGGECFMVKDLSNPSRYLCKCPNEFTGDRCQNYVMASFYKHLGIEFMEAEELY
With B11, the EC50 turned out to be 394 nM in test [2] and 51.7 nM in test [3].

B12: Trx-HRG-β1 146-244 V199A fusion (ligand)
chain: DDDDKAYVSSESPIRISVSTEGANTSSSTSTSTTGTSHLVKCAEKEKTFCVNGGECFMAKDLSNPSRYLCKCPNEFTGDRCQNYVMASFYKHLGIEFMEAEELY
Molecule B12 displayed an EC50 in test [3] of 246 nM. In other words, the sub-micromolar range.

B13: Trx-HRG-β1 146-244 G193A fusion (ligand)
chain: DDDDKAYVSSESPIRISVSTEGANTSSSTSTSTTGTSHLVKCAEKEKTFCVNAGECFMVKDLSNPSRYLCKCPNEFTGDRCQNYVMASFYKHLGIEFMEAEELY
Take B13: the figures for the EC50 in test [2] and in test [3] were 26.9 nM and 76.3 nM, respectively.

B14: Trx-HRG-β1 146-244 F189A fusion (ligand)
chain: DDDDKAYVSSESPIRISVSTEGANTSSSTSTSTTGTSHLVKCAEKEKTACVNGGECFMVKDLSNPSRYLCKCPNEFTGDRCQNYVMASFYKHLGIEFMEAEELY
Turning to B14, the EC50 in test [2] is 975 nM; in test [3] it was 565 nM.

B15: B5 (phage) (ligand)
chain: SHLVKCGWDREGFCVNGGECFMVKDLSNPSRYLCKCPNEFTGDRCQNYVIAS
For B15, in test [1], the EC50(wt)/EC50(mut) worked out at 26.

B16: HRG56 (phage) (ligand)
chain: SHLVKCGEEREGFCVNGGECFMVKDLSNPSRYLCKCPNEFTGDRCQNYVIAS
As to B16, the EC50(wt)/EC50(mut) in test [1] was found to be 31.

B17: B10 (phage) (ligand)
chain: SHLVKCDKSREGFCVNGGECFMVKDLSNPSRYLCKCPNEFTGDRCQNYVIAS
As to B17, in test [1], the EC50(wt)/EC50(mut) was found to be 9.3.

B18: HRG37 (phage) (ligand)
chain: WELVPCGWDREGFCVNGGECFMVKDLSNPSRYLCKCPNEFTGDRCQNYVIAS
Regarding B18, the EC50(wt)/EC50(mut) in test [1] amounted to 13.

B19: HRG53 (phage) (ligand)
chain: SHLVKCGEEREGFCVNGGECYRVKTLSNPSRYLCKCPNEFTGDRCQNYVMAS
As to B19, in test [1], the EC50(wt)/EC50(mut) came out at 26.

B20: HRG60 (phage) (ligand)
chain: SHLVKCGEEREGFCVNGGECYRVKTLSNPSRYLCKCPNEFTGDRCQNYVIAS
With B20, the EC50(wt)/EC50(mut) in test [1] amounted to 63.

B21: D1 (phage) (ligand)
chain: SHLVKCAEKEKTFCVNGGECYKVRILSNPSRYLCKCPNEFTGDRCQNYVIAS
B21: the EC50(wt)/EC50(mut) in test [1] was 11.

B22: HRG59 (phage) (ligand)
chain: SHLVKCAEKEKTFCVNGGECYRVKTLSNPSRYLCKCPNEFTGDRCQNYVIAS
Consider B22, for which the EC50(wt)/EC50(mut) in test [1] turned out to be 26.
